According to PMC5551578 (The Journal of Experimental Medicine, 2017):

B1: H1-Ab1 (antibody, V domains shown)
VH: EVQLVQSGAEVKKPGASVKVSCKASGYIFTSYGISWVRLAPGQGLEWMGWISGYNSNTNYAQKFQGRVTVTADTSTSTAYMELRSLRSDDTAVYYCARDRAHILTGYHFDCWGQGTLVTVSS
VL: DIQMTQSPLSLPVTLGQPASISCRSSQSLVYIDGNTYLNWFQQRPGQSPRRLIYKVSNRDSGVPDRFSGSGSGTDFTLKISSVEAEDVGVYYCMQGTHWPPYTFGQGTKVEIK
B2: H1-Ab3 (antibody, V domains shown)
VH: EVQLVESGAEVKRPGASVKVSCKASGYTFTSYGISWVRQAPGQGLEWMGWISAYNGNTNYAQKLQGRVIMTTDTSTSTAYMELRSLRSDDTAVYYCARDRAHILTGYHFDCWGQGTLVTVSS
VL: DIVMTQSPGTLSLSPGERATLSCGASQSVTSSYLAWYQQKPGQAPRLLIYDAPSRATGIPDRFSGSGSGTDFTLTISRLEPEDFAVYYCQQYGSSHVITFGQGTDWRLN
B3: H1-Ab2 (antibody, V domains shown)
VH: EVQLVQSGAEVKRPGASVKVSCKASGYTFTSYGISWVRQAPGQGLEWMGWISAYNGNTNYAQKLQGRVIMTTDTSTSTAYMELRSLRSDDTAVYYCARDRAHILTGYHFDYWGQGTLVTVSS
VL: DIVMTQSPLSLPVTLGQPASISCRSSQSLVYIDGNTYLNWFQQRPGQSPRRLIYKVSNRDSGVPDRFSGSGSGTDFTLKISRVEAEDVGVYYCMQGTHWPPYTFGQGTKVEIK
B4: H1-Ab15 (antibody, V domains shown)
VH: EVQLVESGAEVKKPGSSVTVSCKASGNIFNSYTVSWVRQVPGQGLEWVARVIPTIGMSNYAPKLQGRVTVTADRSTNTAYMEVTSLRSEDTAVYYCATGPSYYYDANGSPTDYWGQGTLVTVSS
VL: DIQMTQSSATLSVSPGETATLSCRASQSVSSHLVWYQQKPGQAPRLIIYGASTRATGIPVRFSGSRSGTEFTLTISSLQSEDFAIYYCQQYNNWPWTFGQGTKVEIK
B5: H1-Ab4 (antibody, V domains shown)
VH: EVQLVESGGALRKPGASVRVSCRSSGYRFTSNGISWVRQAPGRGLEWMGWISANSGNTFYAQKFQGRVTMTTDTSASTAYVELRRLRPDDTAMYYCARDVHYRFDSWGQGTLVTVSS
VL: QSVLTQPPSASGSPGQSVAISCTGSSSDVGGYDWVSWYQQYPGKGPKLIIYEVNKRPPGVPDRFSGSKSGNTASLTVSGLQTEDEADYYCSSYAGGSRVFGGGTKLTVL
B6: H1-Ab11 (antibody, V domains shown)
VH: QVQLVQSGAEVKKPGSSVKVSCKASGVTFDTYAFSWVRQAPGQGLEWMGGISPIFTTTNYAQTFQGRVTITADKSTSTAYMELSSLISEDTAVYYCAKGGPTTGTPYYVFGLDVWGQGTMVTVSF
VL: DIVMTQSPLSSPVTLGQPASISCRSSQSLVHSDGNTYLSWLHQRPGQPPRLLIYKISNRFSGVPDRFTGSGAGTDFTLKISRVEAEDVGVYYCMQATQFQTFGQGTKVEIK
B7: H1-Ab16 (antibody, V domains shown)
VH: EVQLVESGAEVKKPGSSVKVSCTASGGAFNSHTISWLRQTPGQGLEWMGRIIPILGMANYAQKFHGRVTITADISTNTAYMELSSLRSEDTAVYSCAGGTSRWFGDVEYWGQGSLVTVSS
VL: EIVLTQSPLSLPVTLGQPASISCRSSQSLVFSDGNTYLSWFHQRPGQAPRRLIYKVSDRDSGVPDRFSGSGSGTDFTLKISRVEAEDVGVYYCMQGSHWPPSFGPGTKVEIK
B8: H1-Ab9 (antibody, V domains shown)
VH: EVQLVESGAEVKKPGAPVKVSCKASGYTFTRYYIHWVRQAPGQGLEWMGWINPDSGDTKCAQRFQGRVTMTRDTSVSTAYMELRRLGSDDTALYYCARIQLRSDGFDLWGQGTLVTVSS
VL: QSALTQPASVSGSPGQSITISCTGTSSDIGSYKFVSWYQQHPGKAPKVMIYEVTQRPSGVSNRFSGSKSGNTASLTISGLQAEDEADYYCCSYAGSSFWVFGGGTTLTVP
B9: H1-Ab8 (antibody, V domains shown)
VH: EVQLVQSGAEVKKPGASVKVSCKASGYTFADYYIHWVRQAPGQGLEWMGWINPNSGDTNYAQKFQGRVTMTRDTSISTGDMELSRLRSDDTAVYYCARANRGGYFAWAFFDFWGQGTLVTVSS
VL: EIVLTQSPGTLSLSPGERATLSCRASQSVSSRNLAWYQQKPGQAPRLLIYGASSRATGIPDRFSGSGSGTDFILSISRLEPEDFAVYYCQQYGSSPLTFGGGTKVEIK

Target: H1N1 HA (A/California/04/2009) (Influenza A virus A/California/04/2009 …, UniProt C3W5S1, strain)

Binder	binding result
B1	binds
B2	binds
B3	binds
B4	binds
B5	binds
B6	binds
B7	binds
B8	binds
B9	binds
